Measured values as given in patent publication US20200079833A1 (AstraZeneca / MedImmune, published 2020).
Starred links: 1 amine or outer side, 2 acyl side, 3 side chain; linkers in the order of their positions; H or OH if unused. Non-standard residues stand in square brackets, D forms with d. Groups on a side chain read outwards from the residue. Primed or numbered codes have the meaning given here. No end group written: not given here. *: point of attachment. Dodecanoyl(12-OPh(4-COOH)) = O=C(O)c1ccc(OCCCCCCCCCCCC(=O)*)cc1; γGlu = O=C(O)[C@H](CCC(=O)[*:2])N[*:1]; αMeF = C[C@](N)(Cc1ccccc1)C(=O)O; αMeK = C[C@](N)(CCCCN)C(=O)O; αMeS = C[C@](N)(CO)C(=O)O; PEG2′ = not defined here; Aib = CC(C)(N)C(=O)O; Ahx = NCCCCCC(=O)O

T1: glucose-dependent insulinotropic peptide (gastric inhibitory polypeptide) receptor (GIPR) (human, UniProt P48546 22-466)
T1 sequence (looked up): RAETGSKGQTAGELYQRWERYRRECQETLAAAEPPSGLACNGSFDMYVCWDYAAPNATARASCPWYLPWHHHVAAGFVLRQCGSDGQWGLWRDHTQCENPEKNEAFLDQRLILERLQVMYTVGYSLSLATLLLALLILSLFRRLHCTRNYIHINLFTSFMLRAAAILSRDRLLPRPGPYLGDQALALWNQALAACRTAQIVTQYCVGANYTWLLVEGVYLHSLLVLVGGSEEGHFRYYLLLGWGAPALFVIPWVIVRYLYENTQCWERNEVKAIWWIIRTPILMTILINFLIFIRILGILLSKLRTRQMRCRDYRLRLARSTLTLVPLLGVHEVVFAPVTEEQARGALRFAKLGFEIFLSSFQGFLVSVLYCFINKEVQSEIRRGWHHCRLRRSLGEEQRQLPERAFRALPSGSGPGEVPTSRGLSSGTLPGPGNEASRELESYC


How the values were obtained:
Experiment in all cases: cell-based or functional assay
[1] = target: GLP-1 receptor (GLP-1R) (human, UniProt P43220 24-463)
[2] = target: T1, glucose-dependent insulinotropic …
[3] = target: glucagon receptor (GCGR) (human, UniProt P47871 26-477)
Sequence of glucagon receptor (GCGR) (P47871 26-477): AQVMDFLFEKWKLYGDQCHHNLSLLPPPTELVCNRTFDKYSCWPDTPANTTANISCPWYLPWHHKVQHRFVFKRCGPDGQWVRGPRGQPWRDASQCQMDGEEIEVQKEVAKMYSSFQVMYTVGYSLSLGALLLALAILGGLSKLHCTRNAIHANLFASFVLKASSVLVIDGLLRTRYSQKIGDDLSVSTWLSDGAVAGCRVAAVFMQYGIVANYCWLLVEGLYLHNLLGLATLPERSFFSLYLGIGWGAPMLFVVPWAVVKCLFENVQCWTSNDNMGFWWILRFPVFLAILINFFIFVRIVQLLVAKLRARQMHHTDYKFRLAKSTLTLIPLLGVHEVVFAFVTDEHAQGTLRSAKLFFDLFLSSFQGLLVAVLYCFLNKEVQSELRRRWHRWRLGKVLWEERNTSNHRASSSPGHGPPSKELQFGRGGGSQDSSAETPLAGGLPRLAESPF

Row | Binder | cAMP Mean pM GLP-1R [1] [pM] | cAMP Primary assay EC50 GLP-1R n1 [1] [nM] | cAMP Primary assay EC50 GLP-1R n2 [1] [nM] | cAMP Primary assay EC50 GIP-R [2] [nM] | cAMP Primary assay EC50 GIP-R (2nd) [2] [nM] | cAMP Primary assay EC50 Gluc-R [3] [nM] | cAMP Primary assay EC50 Gluc-R (2nd) [3] [nM]
1 | H[Aib]EGS[αMeF]TSDV[αMeS]S[αMeF]LEGEAAK([γGlu-γGlu-Dodecanoyl(12-OPh(4-COOH))])E[αMeF]IA[αMeF]VV[αMeK]GG-NH2 (N-terminus assumed; SMILES CC[C@H](C)[C@H](NC(=O)[C@](C)(Cc1ccccc1)NC(=O)[C@H](CCC(=O)O)NC(=O)[C@H](CCCCNC(=O)CC[C@H](NC(=O)CC[C@H](NC(=O)CCCCCCCCCCCOc1ccc(C(=O)O)cc1)C(=O)O)C(=O)O)NC(=O)[C@H](C)NC(=O)[C@H](C)NC(=O)[C@H](CCC(=O)O)NC(=O)CNC(=O)[C@H](CCC(=O)O)NC(=O)[C@H](CC(C)C)NC(=O)[C@](C)(Cc1ccccc1)NC(=O)[C@H](CO)NC(=O)[C@](C)(CO)NC(=O)[C@@H](NC(=O)[C@H](CC(=O)O)NC(=O)[C@H](CO)NC(=O)[C@@H](NC(=O)[C@](C)(Cc1ccccc1)NC(=O)[C@H](CO)NC(=O)CNC(=O)[C@H](CCC(=O)O)NC(=O)C(C)(C)NC(=O)[C@@H](N)Cc1c[nH]cn1)[C@@H](C)O)C(C)C)C(=O)N[C@@H](C)C(=O)N[C@@](C)(Cc1ccccc1)C(=O)N[C@H](C(=O)N[C@H](C(=O)N[C@@](C)(CCCCN)C(=O)NCC(=O)NCC(N)=O)C(C)C)C(C)C) [SEQ ID NO 138] | 17.2 | 0.019 | 0.015 | 26 | 26 | 26 | 26
2 | H[Aib]EGS[αMeF]TSDV[αMeS]S[αMeF]LEGEAAK([γGlu-γGlu-γGlu-Dodecanoyl(12-OPh(4-COOH))])E[αMeF]IA[αMeF]VV[αMeK]GG-NH2 (N-terminus assumed; SMILES CC[C@H](C)[C@H](NC(=O)[C@](C)(Cc1ccccc1)NC(=O)[C@H](CCC(=O)O)NC(=O)[C@H](CCCCNC(=O)CC[C@H](NC(=O)CC[C@H](NC(=O)CC[C@H](NC(=O)CCCCCCCCCCCOc1ccc(C(=O)O)cc1)C(=O)O)C(=O)O)C(=O)O)NC(=O)[C@H](C)NC(=O)[C@H](C)NC(=O)[C@H](CCC(=O)O)NC(=O)CNC(=O)[C@H](CCC(=O)O)NC(=O)[C@H](CC(C)C)NC(=O)[C@](C)(Cc1ccccc1)NC(=O)[C@H](CO)NC(=O)[C@](C)(CO)NC(=O)[C@@H](NC(=O)[C@H](CC(=O)O)NC(=O)[C@H](CO)NC(=O)[C@@H](NC(=O)[C@](C)(Cc1ccccc1)NC(=O)[C@H](CO)NC(=O)CNC(=O)[C@H](CCC(=O)O)NC(=O)C(C)(C)NC(=O)[C@@H](N)Cc1c[nH]cn1)[C@@H](C)O)C(C)C)C(=O)N[C@@H](C)C(=O)N[C@@](C)(Cc1ccccc1)C(=O)N[C@H](C(=O)N[C@H](C(=O)N[C@@](C)(CCCCN)C(=O)NCC(=O)NCC(N)=O)C(C)C)C(C)C) [SEQ ID NO 139] | 25.5 | 0.029 | 0.022 | 26 | 26 | 26 | 26
3 | H[Aib]EGS[αMeF]TSDV[αMeS]S[αMeF]LEGEAAK([γGlu-Dodecanoyl(12-OPh(4-COOH))])E[αMeF]IA[αMeF]VV[αMeK]GG-NH2 (N-terminus assumed; SMILES CC[C@H](C)[C@H](NC(=O)[C@](C)(Cc1ccccc1)NC(=O)[C@H](CCC(=O)O)NC(=O)[C@H](CCCCNC(=O)CC[C@H](NC(=O)CCCCCCCCCCCOc1ccc(C(=O)O)cc1)C(=O)O)NC(=O)[C@H](C)NC(=O)[C@H](C)NC(=O)[C@H](CCC(=O)O)NC(=O)CNC(=O)[C@H](CCC(=O)O)NC(=O)[C@H](CC(C)C)NC(=O)[C@](C)(Cc1ccccc1)NC(=O)[C@H](CO)NC(=O)[C@](C)(CO)NC(=O)[C@@H](NC(=O)[C@H](CC(=O)O)NC(=O)[C@H](CO)NC(=O)[C@@H](NC(=O)[C@](C)(Cc1ccccc1)NC(=O)[C@H](CO)NC(=O)CNC(=O)[C@H](CCC(=O)O)NC(=O)C(C)(C)NC(=O)[C@@H](N)Cc1c[nH]cn1)[C@@H](C)O)C(C)C)C(=O)N[C@@H](C)C(=O)N[C@@](C)(Cc1ccccc1)C(=O)N[C@H](C(=O)N[C@H](C(=O)N[C@@](C)(CCCCN)C(=O)NCC(=O)NCC(N)=O)C(C)C)C(C)C) [SEQ ID NO 137] | 5.2 | 0.0066 | 0.0038 | 27 | 27 | 27 | 27

Further lines, results first:

Row | cAMP Mean pM GLP-1R [1] [pM] | cAMP Primary assay EC50 GLP-1R n1 [1] [nM] | cAMP Primary assay EC50 GLP-1R n2 [1] [nM] | cAMP Primary assay EC50 GIP-R [2] [nM] | cAMP Primary assay EC50 GIP-R (2nd) [2] [nM] | cAMP Primary assay EC50 Gluc-R [3] [nM] | cAMP Primary assay EC50 Gluc-R (2nd) [3] [nM] | Binder
4 | 10.1 | 0.012 | 0.0079 | 26 | 26 | 26 | 26 | H[Aib]EGS[αMeF]TSDV[αMeS]S[αMeF]LEGEAAK([Ahx-Ahx-Ahx-Dodecanoyl(12-OPh(4-COOH))])E[αMeF]IA[αMeF]VV[αMeK]GG-NH2 (N-terminus assumed; SMILES CC[C@H](C)[C@H](NC(=O)[C@](C)(Cc1ccccc1)NC(=O)[C@H](CCC(=O)O)NC(=O)[C@H](CCCCNC(=O)CCCCCNC(=O)CCCCCNC(=O)CCCCCNC(=O)CCCCCCCCCCCOc1ccc(C(=O)O)cc1)NC(=O)[C@H](C)NC(=O)[C@H](C)NC(=O)[C@H](CCC(=O)O)NC(=O)CNC(=O)[C@H](CCC(=O)O)NC(=O)[C@H](CC(C)C)NC(=O)[C@](C)(Cc1ccccc1)NC(=O)[C@H](CO)NC(=O)[C@](C)(CO)NC(=O)[C@@H](NC(=O)[C@H](CC(=O)O)NC(=O)[C@H](CO)NC(=O)[C@@H](NC(=O)[C@](C)(Cc1ccccc1)NC(=O)[C@H](CO)NC(=O)CNC(=O)[C@H](CCC(=O)O)NC(=O)C(C)(C)NC(=O)[C@@H](N)Cc1c[nH]cn1)[C@@H](C)O)C(C)C)C(=O)N[C@@H](C)C(=O)N[C@@](C)(Cc1ccccc1)C(=O)N[C@H](C(=O)N[C@H](C(=O)N[C@@](C)(CCCCN)C(=O)NCC(=O)NCC(N)=O)C(C)C)C(C)C) [SEQ ID NO 142]
5 | 8.6 | 0.012 | 0.0052 | 27 | 27 | 27 | 27 | H[Aib]EGS[αMeF]TSDV[αMeS]S[αMeF]LEGEAAK([PEG2′-Dodecanoyl(12-OPh(4-COOH))])E[αMeF]IA[αMeF]VV[αMeK]GG-NH2 [SEQ ID NO 143]
6 | 6.9 | 0.0087 | 0.005 | 27 | 27 | 27 | 27 | H[Aib]EGS[αMeF]TSDV[αMeS]S[αMeF]LEGEAAK([Ahx-Ahx-Dodecanoyl(12-OPh(4-COOH))])E[αMeF]IA[αMeF]VV[αMeK]GG-NH2 (N-terminus assumed; SMILES CC[C@H](C)[C@H](NC(=O)[C@](C)(Cc1ccccc1)NC(=O)[C@H](CCC(=O)O)NC(=O)[C@H](CCCCNC(=O)CCCCCNC(=O)CCCCCNC(=O)CCCCCCCCCCCOc1ccc(C(=O)O)cc1)NC(=O)[C@H](C)NC(=O)[C@H](C)NC(=O)[C@H](CCC(=O)O)NC(=O)CNC(=O)[C@H](CCC(=O)O)NC(=O)[C@H](CC(C)C)NC(=O)[C@](C)(Cc1ccccc1)NC(=O)[C@H](CO)NC(=O)[C@](C)(CO)NC(=O)[C@@H](NC(=O)[C@H](CC(=O)O)NC(=O)[C@H](CO)NC(=O)[C@@H](NC(=O)[C@](C)(Cc1ccccc1)NC(=O)[C@H](CO)NC(=O)CNC(=O)[C@H](CCC(=O)O)NC(=O)C(C)(C)NC(=O)[C@@H](N)Cc1c[nH]cn1)[C@@H](C)O)C(C)C)C(=O)N[C@@H](C)C(=O)N[C@@](C)(Cc1ccccc1)C(=O)N[C@H](C(=O)N[C@H](C(=O)N[C@@](C)(CCCCN)C(=O)NCC(=O)NCC(N)=O)C(C)C)C(C)C) [SEQ ID NO 141]
7 | 4.9 | 0.0059 | 0.0039 | 27 | 27 | 27 | 27 | H[Aib]EGS[αMeF]TSDV[αMeS]S[αMeF]LEGEAAK([Ahx-Dodecanoyl(12-OPh(4-COOH))])E[αMeF]IA[αMeF]VV[αMeK]GG-NH2 (N-terminus assumed; SMILES CC[C@H](C)[C@H](NC(=O)[C@](C)(Cc1ccccc1)NC(=O)[C@H](CCC(=O)O)NC(=O)[C@H](CCCCNC(=O)CCCCCNC(=O)CCCCCCCCCCCOc1ccc(C(=O)O)cc1)NC(=O)[C@H](C)NC(=O)[C@H](C)NC(=O)[C@H](CCC(=O)O)NC(=O)CNC(=O)[C@H](CCC(=O)O)NC(=O)[C@H](CC(C)C)NC(=O)[C@](C)(Cc1ccccc1)NC(=O)[C@H](CO)NC(=O)[C@](C)(CO)NC(=O)[C@@H](NC(=O)[C@H](CC(=O)O)NC(=O)[C@H](CO)NC(=O)[C@@H](NC(=O)[C@](C)(Cc1ccccc1)NC(=O)[C@H](CO)NC(=O)CNC(=O)[C@H](CCC(=O)O)NC(=O)C(C)(C)NC(=O)[C@@H](N)Cc1c[nH]cn1)[C@@H](C)O)C(C)C)C(=O)N[C@@H](C)C(=O)N[C@@](C)(Cc1ccccc1)C(=O)N[C@H](C(=O)N[C@H](C(=O)N[C@@](C)(CCCCN)C(=O)NCC(=O)NCC(N)=O)C(C)C)C(C)C) [SEQ ID NO 140]
